In paper PMC9649601 (2022) one finds Kd data, which are given here for one molecule.

The target in the experiment is ubiquitin conjugating enzyme E2 I (UBE2I), recombinant (UniProt P63279 1-158). Kind of experiment: ITC. In general terms: Isothermal titration calorimetry measures the heat released or taken up as one component is titrated into another.
Sequence of ubiquitin conjugating enzyme E2 I (UBE2I), recombinant (P63279 whole entry): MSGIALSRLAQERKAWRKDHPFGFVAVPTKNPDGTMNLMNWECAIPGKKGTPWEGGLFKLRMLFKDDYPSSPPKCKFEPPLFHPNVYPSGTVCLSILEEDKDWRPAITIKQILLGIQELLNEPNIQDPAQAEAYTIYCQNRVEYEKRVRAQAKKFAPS

B1: lamin A (LMNA), wild type, recombinant (natural protein)
chain: METPSQRRATRSGAQASSTPLSPTRITRLQEKEDLQELNDRLAVYIDRVRSLETENAGLRLRITESEEVVSREVSGIKAAYEAELGDARKTLDSVAKERARLQLELSKVREEFKELKARNTKKEGDLIAAQARLKDLEALLNSKEAALSTALSEKRTLEGELHDLRGQVAKLEAALGEAKKQLQDEMLRRVDAENRLQTMKEELDFQKNIYSEELRETKRRHETRLVEIDNGKQREFESRLADALQELRAQHEDQVEQYKKELEKTYSAKLDNARQSAERNSNLVGAAHEELQQSRIRIDSLSAQLSQLQKQLAAKEAKLRDLEDSLARERDTSRRLLAEKEREMAEMRARMQQQLDEYQELLDIKLALDMEIHAYRKLLEGEEERLRLSPSPTSQRSRGRASSHSSQTQGGGSVTKKRKLESTESRSSFSQHARTSGRVAVEEVDEEGKFVRLRNKSNEDQSMGNWQIKRQNGDDPLLTYRFPPKFTLKAGQVVTIWAAGAGATHSPPTDLVWKAQNTWGCGNSLRTALINSTGEEVAMRKLVRSVTVVEDDEDEDGDDLLHHHHGSHCSSSGDPAEYNLRSRTVLCGTCGQPADKASASGSGAQVGGPISSGSSASSVTVTRSYRSVGGSGGGSFGDNLVTRSY
As for B1, the Kd came to 373 nM.

As usually defined, the Kd is the equilibrium constant for the complex coming apart.
